B1: SEQ ID NO 172 (designed binder)
chain: PLSPPTNLHLEANPDTGVLTVSWERSTTPDITYYSIDTWTFGQWGLEEVVHADQSSCTFDNLSPGLYYYVEVVTVYEWAYSYPISDTIIP
B2: SEQ ID NO 169 (designed binder)
chain: PLSPPTNLHLEANPDTGVLTVSWERSTTPDITDYYIITRSRWGYLEEVVHADQSSCTFDNLSPGLRYHVYVWTVGHYRDPISDTIIP
B3: SEQ ID NO 166 (designed binder)
chain: PLSPPTNLHLEANPDTGVLTVSWERSTTPDITWYWIGTWYSGYMVGLEEVVHADQSSCTFDNLSPGLTYWVLVGTVVRSPSRRPISDTIIP
B4: SEQ ID NO 174 (designed binder)
chain: PLSPPTNLHLEANPDTGVLTVSWERSTTPDITDYNISTWLYTSVSVYTELEEVVHAGQSSCTFDNLSPGLAYVVYVWSTVWEHFYPSPISDTIIP
B5: SEQ ID NO 173 (designed binder)
chain: PLSPPTNLHLEANPDTGVLTVSWERSTTPDITMYAITTYEYSRAWQYLEEVVHADQSSCTFDNLSPGLTYYVEVYTVRYTWSDPISDTIIP
B6: SEQ ID NO 170 (designed binder)
chain: PLSPPTNLHLEANPDTGVLTVSWERSTTPDITNYLIQTDYFAFIKGVLEEVVHADQSSCTFDNLSPGLYYYVGVDTVSVPSHGPISDTIIP
B7: SEQ ID NO 175 (designed binder)
chain: PLSPPTNLHLEANPDTGVLTVSWERSTTPDITWYWINTSLANVRMSLEEVVHADQSGCTFDNLSPGLYYDVQVRTVSAAEGYPISDTIIP
B8: SEQ ID NO 161 (designed binder)
chain: PLSPPTNLHLEANPDTGVLTVSWERSTTRDITTYGIETEYDHSVGLEEVVHADQSSCTFDNLSPGLNYDVEVVTVGWGVYQRPISDTIIP
B9: SEQ ID NO 165 (designed binder)
chain: PLSPPTNLHLEANPDTGVLTVSWERSTTPDITYYGIWTLTWLQYYSYRWGLEEAVHADQSSCTFDNLSPGLVYLVYVGTVRSPMARPISDTIIP
B10: SEQ ID NO 171 (designed binder)
chain: PLSPPTNLHLEANPDTGVLTVSWERSTTPDITYYTIATADYTYSYAHLEEVVHADQSSCTFDNLSPGLNYEVGVGTVSVYSYIGPISDTIIP
B11: SEQ ID NO 168 (designed binder)
chain: PLSPPTNLHLEANPDTGVLTVSWERSTTPDITTYGIETQTVEWVYYLEEVVHADQSSCTFDNLSPGLYYNVTVGTVMLDAAYPISDTIIP
B12: SEQ ID NO 167 (designed binder)
chain: PLSPPTNLHLEANPDTGVLTVSWERSTTPDVTTYSIYTYGYWDSHYMSLEEVVHADQSRCTFDNLSPGLYYSVEVYTVYYGLYVVPISDTIIP
B13: SEQ ID NO 176 (designed binder)
chain: PLSPPTNLHLEANPDTGVLTVSWERSTTPDITKYIIYTGYGASYDLEEVVHADQSSCTFDNLSPGLKYTVTVWTVSYASQVPISDTIIP
B14: SEQ ID NO 164 (designed binder)
chain: PLSPPTNLHLEANPDTGVLTVSWERSTTPDITYYEINTTGYYGFYPGGLEEVVHADQSSCTFDNLSPGLYYQVTVQTVVYSMWYHPISDTIIP
B15: SEQ ID NO 163 (designed binder)
chain: SLSPPTNLHLEANPDTGVLTVGWERSTTPGITSYSIDTAKDDVPYLEEVVHADQSSCTFDNLSPGLNYTVVVATVGWSVDGPISDTIIP

biological target: T1, human serum albumin (human, UniProt P02768 25-609); experiment: cradle library selection hit
T1 construct: also called HSA
T1 sequence (P02768 25-609 limits assumed): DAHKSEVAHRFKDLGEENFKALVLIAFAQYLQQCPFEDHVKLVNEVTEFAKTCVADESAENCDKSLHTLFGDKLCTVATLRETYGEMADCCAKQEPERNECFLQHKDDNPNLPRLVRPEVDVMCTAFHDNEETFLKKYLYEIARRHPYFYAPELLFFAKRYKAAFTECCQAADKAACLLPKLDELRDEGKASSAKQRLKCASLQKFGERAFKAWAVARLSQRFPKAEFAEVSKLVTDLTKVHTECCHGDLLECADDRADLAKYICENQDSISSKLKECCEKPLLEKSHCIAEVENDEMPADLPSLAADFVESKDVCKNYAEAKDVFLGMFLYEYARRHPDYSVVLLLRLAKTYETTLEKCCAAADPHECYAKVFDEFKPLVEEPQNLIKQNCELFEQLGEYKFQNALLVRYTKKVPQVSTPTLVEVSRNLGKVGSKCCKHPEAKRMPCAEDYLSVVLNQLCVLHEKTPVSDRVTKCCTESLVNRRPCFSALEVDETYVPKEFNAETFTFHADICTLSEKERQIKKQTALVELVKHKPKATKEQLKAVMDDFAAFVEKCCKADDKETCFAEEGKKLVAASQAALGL

Binding result, binds:
B1
B2
B3
B4
B5
B6
B7
B8
B9
B10
B11
B12
B13
B14
B15

Reference: patent US20140057807A1 (UNIVERSITY OF CHICAGO, published 2014)
